Reference: patent publication US20090010935A1

Columns and labels:
[1] = target: human epidermal growth factor receptor (EGFR), full-length wild type (human) (UniProt P00533); assay: cell-based or functional assay
[2] = target: ΔEGFR, extracellular-deleted mutant human EGFR (EGFRvIII) (human) (UniProt P00533); assay: cell-based or functional assay

With “N691 stop (cytoplasmic domain deleted rat cellular p185) (from UniProt P06494 23-690) (receptor)” as the substance, how does the EGF-induced down-regulation of cell-surface EGFR in cells co-expressing EGFR and kinase deficient Neu (flow cytometry) [1] read?
The EGF-induced down-regulation of cell-surface EGFR in cells co-expressing EGFR and kinase deficient Neu (flow cytometry) was 20 to 25%.

Which EGF-induced down-regulation of cell-surface EGFR in cells co-expressing EGFR and kinase deficient Neu (flow cytometry) [1] does the source give for “N757 (Nneu K757M, ATP-binding site mutant of rat cellular p185) (from UniProt P06494 23-1257) (receptor)” here?
Its EGF-induced down-regulation of cell-surface EGFR in cells co-expressing EGFR and kinase deficient Neu (flow cytometry) is 20 to 25%.

Which inhibition of anchorage-independent growth by T691 stop neu in U87MG parental cells lacking ΔEGFR [1] does the source give for “T691 stop neu (ectodomain-derived, carboxyl-terminal deletion mutant of the rat p185neu oncogene) (from UniProt P06494 23-654) (receptor)” here?
Its inhibition of anchorage-independent growth by T691 stop neu in U87MG parental cells lacking ΔEGFR is 75.2%.

What about the radiation-induced apoptosis (DAPI), U87/T691 cells, 72 h after gamma-irradiation [1] of the same substance?
The radiation-induced apoptosis (DAPI), U87/T691 cells, 72 h after gamma-irradiation was 20%.

And the radiation-induced apoptosis (DAPI), U87/T691 cells, prolonged serum deprivation combined with radiation [1]?
The radiation-induced apoptosis (DAPI), U87/T691 cells, prolonged serum deprivation combined with radiation was 33%.

What about the phosphorylation content of immunoprecipitated p155 ΔEGFR monomers (mAb Δ124 immunoprecipitation, PY-20 blot, scanning densitometry) [2] of the same substance?
The phosphorylation content of immunoprecipitated p155 ΔEGFR monomers (mAb Δ124 immunoprecipitation, PY-20 blot, scanning densitometry) was 33.7%.

Which co-downregulation of cellular p185 with EGFR upon EGF treatment, M1 cells (flow cytometry) [1] does the source give for “wildtype rat cellular p185 (Nneu) (from UniProt P06494 23-1257) (receptor)” here?
The co-downregulation of cellular p185 with EGFR upon EGF treatment, M1 cells (flow cytometry) was 20%.

What about the half life of WT cellular p185 after EGF treatment (pulse-chase, densitometry) [1] of the same substance?
The half life of WT cellular p185 after EGF treatment (pulse-chase, densitometry) was 3 h.
